In patent US20220401557A1 (Chugai, published 2022):
Where a chain is given by its changes, count along the chain named.

B1: rCE115/rCE115uPA04//GCH065 (bispecific antibody, human IgG1, kappa, N297A)
heavy 1: EVQLVETGGSLVQPGKSLKLTCATSGFTFSNAWMHWVRQSPEKQLEWVAQIKAKSNNYATYYAESVKGRFTISRDDSKSNIYLQMNSLKEEDTAVYYCRYVHYGAYYGVDAWGQGTSVTVSSASTKGPSVFPLAPSSKSTSGGTAALGCLVKDYFPEPVTVSWNSGALTSGVHTFPAVLQSSGLYSLSSVVTVPSSSLGTQTYICNVNHKPSNTKVDKKVEPKSCDKTHTCPPCPAPELRGGPKVFLFPPKPKDTLMISRTPEVTCVVVDVSHEDPEVKFNWYVDGVEVHNAKTKPREEQYASTYRVVSVLTVLHQDWLNGKEYKCKVSNKALPAPIEKTISKAKGQPREPQVYTLPPSRKEMTKNQVSLTCLVKGFYPSDIAVEWESNGQPENNYKTTPPYLDSDGSFFLYSKLTVDKSRWQQGNVFSCSVMHEALHNHYTQKSLSLSP
light 1: QDGNEEMGGGSGGGSGGGSLSGRSDNHGGGSDVVMTQTPVSMSVSLGGQVSISCRSSQSLVHNNGNTYVSWYIQKPSQSPQLLIYKVSNRFSGISDRFSGSGSGTDFTLKISRVEPDDLGVYYCGQGTQDPYTFGAGTKLELKRTVAAPSVFIFPPSDEQLKSGTASVVCLLNNFYPREAKVQWKVDNALQSGNSQESVTEQDSKDSTYSLSSTLTLSKADYEKHKVYACEVTHQGLSSPVTKSFNRGEC
heavy 2: QVQLVQSGAEVKKPGASVTVSCKASGYTFTDYEMHWIRQPPGEGLEWIGAIDGPTPDTAYSEKFKGRVTLTADKSTSTAYMELSSLTSEDTAVYYCTRFYSYTYWGQGTLVTVSSASTKGPSVFPLAPSSKSTSGGTAALGCLVKDYFPEPVTVSWNSGALTSGVHTFPAVLQSSGLYSLSSVVTVPSSSLGTQTYICNVNHKPSNTKVDKKVEPKSCDKTHTCPPCPAPELRGGPKVFLFPPKPKDTLMISRTPEVTCVVVDVSHEDPEVKFNWYVDGVEVHNAKTKPREEQYASTYRVVSVLTVLHQDWLNGKEYKCKVSNKALPAPIEKTISKAKGQPREPQVYTLPPSREEMTKNQVSLTCLVKGFYPSDIAVEWESNGQPENNYKTTPPYLDSDGSFFLYSKLTVDKSRWQQGNVFSCSVMHEALHNHYTQESLSLSP
light 2: DIVMTQSPLSLPVTPGEPASISCRSSQPLVHSNRNTYLHWYQQKPGQAPRLLIYKVSNRFSGVPDRFSGSGSGTDFTLKISRVEAEDVGVYYCGQGTQVPYTFGQGTKLEIKRTVAAPSVFIFPPSDEQLKSGTASVVCLLNNFYPREAKVQWKVDNALQSGNSQESVTEQDSKDSTYSLSSTLTLSKADYEKHKVYACEVTHQGLSSPVTKSFNRGEC
B2: hCE115HAuPA20L/GLS//GCH065 (bispecific antibody, human IgG1, kappa, N297A)
heavy 1: QDGNEEMGGITQTPYKVSISGGGGSGGGGSGGGGSLSGRSDNHGGGSQVQLVESGGGVVQPGRSLRLSCAASGFTFSNAWMHWVRQAPGKGLEWVAQIKAKSNNYATYYAESVKGRFTISRDDSKNSLYLQMNSLKTEDTAVYYCRYVHYGAYYGVDAWGQGTTVTVSSASTKGPSVFPLAPSSKSTSGGTAALGCLVKDYFPEPVTVSWNSGALTSGVHTFPAVLQSSGLYSLSSVVTVPSSSLGTQTYICNVNHKPSNTKVDKKVEPKSCDKTHTCPPCPAPELRGGPKVFLFPPKPKDTLMISRTPEVTCVVVDVSHEDPEVKFNWYVDGVEVHNAKTKPREEQYASTYRVVSVLTVLHQDWLNGKEYKCKVSNKALPAPIEKTISKAKGQPREPQVYTLPPSRKEMTKNQVSLTCLVKGFYPSDIAVEWESNGQPENNYKTTPPYLDSDGSFFLYSKLTVDKSRWQQGNVFSCSVMHEALHNHYTQKSLSLSP
light 1: B1 light 2 with P28S
heavy 2: B1 heavy 2
light 2: B1 light 2
B3: hCE115HAuPA20/GLS//GCH065 (bispecific antibody, human IgG1, kappa, N297A)
heavy 1: QDGNEEMGGITQTPYKVSISLSGRSDNHGGGSQVQLVESGGGVVQPGRSLRLSCAASGFTFSNAWMHWVRQAPGKGLEWVAQIKAKSNNYATYYAESVKGRFTISRDDSKNSLYLQMNSLKTEDTAVYYCRYVHYGAYYGVDAWGQGTTVTVSSASTKGPSVFPLAPSSKSTSGGTAALGCLVKDYFPEPVTVSWNSGALTSGVHTFPAVLQSSGLYSLSSVVTVPSSSLGTQTYICNVNHKPSNTKVDKKVEPKSCDKTHTCPPCPAPELRGGPKVFLFPPKPKDTLMISRTPEVTCVVVDVSHEDPEVKFNWYVDGVEVHNAKTKPREEQYASTYRVVSVLTVLHQDWLNGKEYKCKVSNKALPAPIEKTISKAKGQPREPQVYTLPPSRKEMTKNQVSLTCLVKGFYPSDIAVEWESNGQPENNYKTTPPYLDSDGSFFLYSKLTVDKSRWQQGNVFSCSVMHEALHNHYTQKSLSLSP
light 1: B1 light 2 with P28S
heavy 2: B1 heavy 2
light 2: B1 light 2
B4: ANuPA20L/GLS//GCH065 (bispecific antibody, human IgG1, kappa, N297A)
heavy 1: QDGNEEMGGITQTPYKVSISGGGGSGGGGSGGGGSLSGRSDNHGGGSQVQLVESGGGLVQPGRSLRLSCAASGFTFSNAWMHWVRQAPGKGLEWVAQIKDKANGYNAYYAESVKGRFTISRDDSKNSIYLQMNSLKTEDTAVYYCRYVHYTTYAGFSYKFGVDAWGQGTTVTVSSASTKGPSVFPLAPSSKSTSGGTAALGCLVKDYFPEPVTVSWNSGALTSGVHTFPAVLQSSGLYSLSSVVTVPSSSLGTQTYICNVNHKPSNTKVDKKVEPKSCDKTHTCPPCPAPELRGGPKVFLFPPKPKDTLMISRTPEVTCVVVDVSHEDPEVKFNWYVDGVEVHNAKTKPREEQYASTYRVVSVLTVLHQDWLNGKEYKCKVSNKALPAPIEKTISKAKGQPREPQVYTLPPSRKEMTKNQVSLTCLVKGFYPSDIAVEWESNGQPENNYKTTPPYLDSDGSFFLYSKLTVDKSRWQQGNVFSCSVMHEALHNHYTQKSLSLSP
light 1: B1 light 2 with P28S
heavy 2: B1 heavy 2
light 2: B1 light 2
B5: hCE115HAuPA04/GLS//GCH065 (bispecific antibody, human IgG1, kappa, N297A)
heavy 1: QDGNEEMGGGSGGGSGGGSLSGRSDNHGGGSQVQLVESGGGVVQPGRSLRLSCAASGFTFSNAWMHWVRQAPGKGLEWVAQIKAKSNNYATYYAESVKGRFTISRDDSKNSLYLQMNSLKTEDTAVYYCRYVHYGAYYGVDAWGQGTTVTVSSASTKGPSVFPLAPSSKSTSGGTAALGCLVKDYFPEPVTVSWNSGALTSGVHTFPAVLQSSGLYSLSSVVTVPSSSLGTQTYICNVNHKPSNTKVDKKVEPKSCDKTHTCPPCPAPELRGGPKVFLFPPKPKDTLMISRTPEVTCVVVDVSHEDPEVKFNWYVDGVEVHNAKTKPREEQYASTYRVVSVLTVLHQDWLNGKEYKCKVSNKALPAPIEKTISKAKGQPREPQVYTLPPSRKEMTKNQVSLTCLVKGFYPSDIAVEWESNGQPENNYKTTPPYLDSDGSFFLYSKLTVDKSRWQQGNVFSCSVMHEALHNHYTQKSLSLSP
light 1: B1 light 2 with P28S
heavy 2: B1 heavy 2
light 2: B1 light 2
B6: CE115VH-F760mnP17/GLS3000-k0 (Combination of rat anti-CD3 antibody and human anti-CD3 antibody) (antibody, human IgG1, kappa, N297A, V domains shown)
VH: EVQLVETGGSLVQPGKSLKLTCATSGFTFSNAWMHWVRQSPEKQLEWVAQIKAKSNNYATYYAESVKGRFTISRDDSKSNIYLQMNSLKEEDTAVYYCRYVHYGAYYGVDAWGQGTSVTVSS
VL: DIVMTQSPLSLPVTPGEPASISCRSSQSLVHSNRNTYLHWYQQKPGQAPRLLIYKVSNRFSGVPDRFSGSGSGTDFTLKISRVEAEDVGVYYCGQGTQVPYTFGQGTKLEIKR
B7: CE115HA000-F760mnP17/GLS3000-k0 (Humanized anti-CD3 antibody) (antibody, human IgG1, kappa, N297A, V domains shown)
VH: QVQLVESGGGVVQPGRSLRLSCAASGFTFSNAWMHWVRQAPGKGLEWVAQIKAKSNNYATYYAESVKGRFTISRDDSKNSLYLQMNSLKTEDTAVYYCRYVHYGAYYGVDAWGQGTTVTVSS
VL: B6 VL
B8: CE115VH-F760mnP17/rCE115VL-k0 (Rat anti-CD3 antibody) (antibody, human IgG1, kappa, N297A, V domains shown)
VH: B6 VH
VL: DVVMTQTPVSMSVSLGGQVSISCRSSQSLVHNNGNTYVSWYIQKPSQSPQLLIYKVSNRFSGISDRFSGSGSGTDFTLKISRVEPDDLGVYYCGQGTQDPYTFGAGTKLELKR
B9: AN121H-F760mnP17/GLS3000-k0 (AN121) (antibody, human IgG1, kappa, N297A, V domains shown)
VH: QVQLVESGGGLVQPGRSLRLSCAASGFTFSNAWMHWVRQAPGKGLEWVAQIKDKANGYNAYYAESVKGRFTISRDDSKNSIYLQMNSLKTEDTAVYYCRYVHYTTYAGFSYKFGVDAWGQGTTVTVSS
VL: B6 VL

Each binder was assayed against CD3 on NFAT-RE-luc2-Jurkat cells (human, UniProt P07766 23-207) (assay: cell-based or functional assay).
Chain of CD3 on NFAT-RE-luc2-Jurkat cells (P07766 23-207): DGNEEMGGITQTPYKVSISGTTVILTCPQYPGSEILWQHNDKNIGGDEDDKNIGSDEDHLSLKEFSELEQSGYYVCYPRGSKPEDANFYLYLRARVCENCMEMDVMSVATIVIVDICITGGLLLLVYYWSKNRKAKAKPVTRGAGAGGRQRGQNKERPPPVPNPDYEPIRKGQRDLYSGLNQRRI
In the case of B1, the “increase rate due to the protease treatment (luciferase, uPA-treated / untreated), antibody 0.1 nM” value is reported as 2.7 ratio and the “increase rate due to the protease treatment (luciferase, uPA-treated / untreated), antibody 1 nM” value is reported as 3.8 ratio.
In the case of B2, the “increase rate due to the protease treatment (luciferase, uPA-treated / untreated), antibody 0.1 nM” value is reported as 1.2 ratio and the “increase rate due to the protease treatment (luciferase, uPA-treated / untreated), antibody 1 nM” value is reported as 2.4 ratio.
For B3, the “increase rate due to the protease treatment (luciferase, uPA-treated / untreated), antibody 0.1 nM” value was 1.1 ratio and the “increase rate due to the protease treatment (luciferase, uPA-treated / untreated), antibody 1 nM” value was 2.4 ratio.
B4 was tested, and the “increase rate due to the protease treatment (luciferase, uPA-treated / untreated), antibody 0.1 nM” value was 1 ratio and the “increase rate due to the protease treatment (luciferase, uPA-treated / untreated), antibody 1 nM” value was 1.7 ratio.
For B5, the “increase rate due to the protease treatment (luciferase, uPA-treated / untreated), antibody 0.1 nM” value was 1.3 ratio and the “increase rate due to the protease treatment (luciferase, uPA-treated / untreated), antibody 1 nM” value was 6.3 ratio.

What follows are binders tested against T1, CD3εδ heterodimer (Homo sapiens (Human), UniProt P07766 22-126; P04234 22-100) (assay: SPR, Biacore T200; antibody captured on Protein G (CM3 chip), CD3εδ heterodimer as analyte, single cycle kinetics, 37 C).
T1 construct: also called CD3ε8
T1 sequence (P07766 other isoform, or with tags, fused parts or gaps mutant limits assumed, chain 1 of 2): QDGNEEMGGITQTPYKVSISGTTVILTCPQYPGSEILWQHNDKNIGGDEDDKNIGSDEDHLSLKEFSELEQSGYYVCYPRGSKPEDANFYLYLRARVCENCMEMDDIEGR
T1 sequence (P04234 other isoform, or with tags, fused parts or gaps mutant limits assumed, chain 2 of 2): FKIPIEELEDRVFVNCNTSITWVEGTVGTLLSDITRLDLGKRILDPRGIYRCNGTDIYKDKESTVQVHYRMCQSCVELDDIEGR
Procedure: The activity of binding to the CD3εδ heterodimer was measured for: the rat anti-CD3 antibody containing as the variable region the heavy chain variable region (SEQ ID NO: 10) and the light chain variable region (SEQ ID NO: 11) described in Reference Example 1; a combination of a human anti-CD3 antibody and a rat anti-CD3 antibody which contains as the variable region a heavy chain variable region (SEQ ID NO: 12) and a light chain variable region (SEQ ID NO: 13) where the light chain has been humanized by a method known to those skilled in the art; a humanized anti-CD3 antibody which contains as the variable region a heavy chain variable region (SEQ ID NO: 12) and a light chain variable region (SEQ ID NO: 13), which have been humanized by a method known to those skilled in the art; and AN121 which contains as the variable region a heavy chain variable region (SEQ ID NO: 43) and a light chain variable region (SEQ ID NO: 13). The heavy chain variable regions were fused with F760mnP17 (SEQ ID NO: 39) used as the constant region and the light chain variable regions were fused with the Kappa chain (SEQ ID NO: 36) used as the constant region, and the antibodies were expressed according to the method of Reference Example 2.
The activity of binding to the CD3εδ heterodimer was assessed using BiacoreT200. Specifically, Protein G was immobilized onto a CM3 chip by a method known to those skilled in the art, and antibodies to be evaluated were bound to the immobilized Protein G. Then, the CD3εδ heterodimer prepared at 4000, 1000, 250, 62.5, 15.6, and 3.9 nM was bound thereto, and the binding was evaluated using the single cycle kinetics mode. Measurements were taken under conditions of 20 mM ACES, 150 mM NaCl, and pH7.4 at 37° C.
B6 was tested, and the Kd was 262 nM, the koff was 0.0124 s⁻¹ and the kon was 47300 M⁻¹ s⁻¹.
For B7, the Kd was 556 nM, the koff was 0.0288 s⁻¹ and the kon was 51800 M⁻¹ s⁻¹.
With B8 the Kd was 191 nM, the koff was 0.00771 s⁻¹ and the kon was 40400 M⁻¹ s⁻¹.
B9 was tested, and the Kd was 9.68 nM, the koff was 0.000723 s⁻¹ and the kon was 74700 M⁻¹ s⁻¹.
